According to the supplement of paper PMC9170038:

Test system: K4 kissing-loop RNA reporter
Experiment: apparent KD of K4 kissing-loop reporter; higher = weaker reporter binding
Conditions: Eterna round: R107
Method: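 RNA-MaP round R107: designed RNA switches with theophylline, tryptophan, arginine or FMN aptamers are transcribed on-chip within common flanks. They are titrated with a labelled K4 kissing-loop RNA reporter in RNA-MaP buffer (100 mM Tris pH 7.5, 80 mM KCl, 4 mM MgCl2), without ligand or with the indicated ligand. Median apparent KD per design.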

[1] = input ligand: theophylline 20 uM
[2] = input ligand: tryptophan 2.4 mM
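Note: bound reporter read as fluorescence of individual clusters on recovered sequencing chips by microscopy, with normalized cluster intensities fitted with a binding model.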

Sequence	apparent KD of K4 kissing-loop reporter (input ligand: FMN 200 uM) [nM]	apparent KD of K4 kissing-loop reporter (input ligand: arginine 13.2 mM) [nM]	apparent KD of K4 kissing-loop reporter (input ligand: none) [nM]	apparent KD of K4 kissing-loop reporter [1] [nM]	apparent KD of K4 kissing-loop reporter [2] [nM]
AAUAGGGAUAGUGAUGUUAUCCCUUAUGAUACCAGUGCCAUCGGACACCCUUGGCAGCAUACGGGCAGUGAUGUUGUCCUUGGUG [Exclusion Theophylline A GF 16]	106	94	101	94.8	93.8
ACGCUGGUGAAUAACACUAGCGAAAAUUCGCGAGGACCGGUACGGCCGCCACUCGCUAACUGCGAGUGAUGUUCGAUAAUAAAAU [Mat - Mod of OpenEnded 3 - D8]	233	67.5	165	169	112
UGACUGGACUGAAGGAGCGCUAAAACUCCUAGUGAUGUUGGGAAAUAGAGACAAAGUCUCAAGCAGGUAGGUCGCAGUCUAGUCU [ArgBS 23 #SwitchBubble #StaticStem]	166	200	163	197	169
AAAAUAAACCAGUGAUGUUGGUGUCUAGAUACCAGCGAUAAUAAUCGCCCUUGGCAGCUACGGACGUACAAAAUAAGUACGUCCU [MatMod 10 - Jieux - Same State - Theophylline A]	543	375	454	485	460
UGUAAGUGUCAGCGAGUGAUGUUCGACGAUACCAGACUCGAUAGAGUCCCUUGGCAGCGUAAUGCAUGCCAAACUGGCACAUACU [#SwitchBubble 11 #K4Early]	453	438	560	528	434
AGUGGAACUUGCAGGUAUCCACAACUGGAUACCAGCUCGGAAACGAGCCCUUGGCAGCCAGAUCUUGCAGUGAUGUUGCAAGUUC [Design10]	392	323	392	412	381
AGGUUUUGAUCAGGAUAUGCAUUGACGAUGAGAAUAUAGUGAUGUUAUAUACUACGAAUUAGUAAAGUAGAAGGGAUUGAGGUUU [SSFMNB.aB]	747	565	820	898	518
AGUGAUGUUGUGUUAUGUUAGUGAAGUGAUCGAGGACCGGUACGGCCGCCACUCGAGUGAUGAGUGAGUGAUGUUUGUUUAGGGA [popmullin]	1100	674	1140	990	486
AUCGUUGCCAUUAGGACAUACGGUCCUGAACGAGGACCGGUACGGCCGCCACUCGAGCACACGAGUGAUGUUCGUGGGCAACGAU [Tryp A SS t1]	131	107	137	136	358
UCGAAAUGCGUCUCCUAGUUUCUCCGGGAAGGAGCGUGGAUAACCGCAGGUAGGUCGCCCGGGAGCCGGACCAGUGAUGUUGGUC [Exclusion Arginine A Gf 30]	181	211	197	207	164
UUUUAUAACCGAAGGAGCGCGUGGGCGCAGUGAUGUUGCGCCCGACAUCACUUCAACUUAACGCAGGUAGGUCGCGGUUUUAAUA [Arginine B (Excl) V2]	157	132	159	158	153
AGUACGGACGCGGCCGCCACUCAGGAGAAGAAGGUAGUGAUGUUGCUUAUGGAGAGAUCAAUCAAGAGGACCGGGUGCCGUGCAA [#07 K4 Tryptophan B Same State]	285	340	426	534	338
UCACGUGCCAGUGAUGUUGGCGUACGUGAUACCAGACGAAUAAAAGUCCCUUGGCAGCACAAAUAUGCCAAGUUAGAUGUAUGAU [Exclusion Theophylline A GF 2]	125	122	121	116	116
AAUUCUCUUUUUGAUACCAGCGAAUCUGAGUGAUGUUCUAAGCCAUACAAUUGAGUAAAUCGCCCUUGGCAGCAAUUCGUGGGUG [theeternabot_exclusion_KL_Theo_B_20]	898	681	724	921	567
ACUGAGCAUGCGGCCGCCACUUCAGAACGUCGCCCAGAGGGCGACGCCUCCGCAGUGAUGUUGUGGAGGACCGGGCAUGUUCAGA [Omei KL Tryp B Exc A v5]	419	360	355	451	420
CAUACGCAUGGAGGAUAUGAGAUUACUCAUAUUACCCUGUAACAGGUAUCUCAGUGAUGUUGAGACUCAGAAGGCCAUGUGUAUG [Ex FMN B 22]	713	354	415	435	387
AGAUUCGACACGGCCGCCACUUCCGGUGGCUGGUGUCAUGGUGCGCGUGAGUGAUGUUUAUGUGGAAGGACCGGGUGUUGAGUCU [whbob_Ex_Tryp_B_w41]	597	525	730	751	872
UUCAGGUGUUCGGCCGCCACUCCAGUGAUGUUGGAGUGGCUUCACAAGGGCCAGGACAAUGUAAGGAGGACCGGGAAUAUCGCAG [Quonerar]	127	116	123	89.2	134
UUAGCUCUAUAGAGCAAGAGGUCAACUGAUACCAGAGGCUAUAGCCUCCCUUGGCAGCGGAACGAGUGAUGUUCGAGACCUCAUU [AK6 SS Theophylline A]	1280	816	1560	750	1440
UGUACCGAGUCAGGAUAUGCCGUCGAAAGACGAAAGCAGUGAUGUUGCAUCGAUCGAAAGAUCGUUGCAGAAGGGACUUGGUACU [FmnBS 23 #SwitchBubble #StaticStem #DoubleMagnetSystem]	873	164	244	158	297
CGCCGUAAGGCGGUCGCUCCCACUCCGGAAGGAGCGCCCGCAAGGGCAGGUAGGUCGCCGGAGUGAUGUUCCGGUGGAGGGACCG [#2 Exclusion - Arginine A Attempt #7 (Inspired by Omei)]	207	161	260	216	186

Sequence	apparent KD of K4 kissing-loop reporter (input ligand: FMN 200 uM) [nM]	apparent KD of K4 kissing-loop reporter (input ligand: arginine 13.2 mM) [nM]	apparent KD of K4 kissing-loop reporter (input ligand: none) [nM]	apparent KD of K4 kissing-loop reporter [1] [nM]	apparent KD of K4 kissing-loop reporter [2] [nM]
CGCAGUGAUGUUGCUAUUGUUCUUGGUUAACGAGGACCGGUACGGCCGCCACUCGAUGUCUGUCUAGUCCAGUGUUUUUUUGAGU [whbob_EX_Tryp_A_t9]	513	493	592	571	310
GCCAGAGCGCGAAGGAGCGCCGUGACAGGUUACUGCCUUGGGCAGUGAUGUUGCUCAAUCUGGCAGGUAGGUCGCGUGCUCUGGC	179	185	215	202	168
GCCUUUGUACAGUCCGUUUGUCAUGUGGAUACCAGCAGGAUAGCUUGCCCUUGGCAGCCAUCCAUUUAAUGUAGUGAUGUUACGC [theeternabot_exclusion_KL_Theo_A_13]	398	440	477	412	338
UCCUAGGCUCGAAAGAGCCUAGGAUUGACUCAGGAUAUCCGGAAACGGAGAAGGGAGUCACUAGUGAUGUUAGGGAUUCCCUAUU	312	91.2	100	85.9	94.2
CGUGAGUGAUGUUCACGAGGCUUGUUUCUAGAGGAUAUUCACUUUAGAAGAAGGCUAGAGAUCUAUAUCGUGAUGCUCGAUAACG [FMN A Ex t1]	295	247	197	260	155
GGGCCUAUUGAUGCUGGAGCAAUUCUGGAAGGAGCGCUCAAAGGAGCAGGUAGGUCGCCAGUAUGCAAGGGCAGUGAUGUUGCCC [Ersoarxe]	238	164	233	145	189
AUAUGCAGGAGAAGGAGCGUCGUUGCAAGUGAUGUUUGCAAGCGAGCUUACUAUAUACGACGACAGGUAGGUCGCUCCUGCGUAA [Arg B Ex t2]	68.8	61.7	64.8	58.1	67.2
AUUAAUAUCACGGCCGCCACUGUAUAUUGUUUUUAUAUUUAGAAUAAUUGCCAGUGAUGUUGGAACAGGACCGGGUGAGUUUAUA [#28 K4 Tryptophan B Same State]	511	434	626	402	323
GGCGCUGUCUGUGCCGCCCUCCUCGUCCCUCGAGGACCGGUACGGCCGCCACUCGAGUGAUGUUCGGGUAGCCCUCCCUGCCAGC [BDazzled - #22 Exc. Tryptophan A]	462	320	492	382	233
AAAUAACAGGCAGGAUAUGCUUAGUAAUAAGGCCAUAUAUACGUAUAGAGUGAUGUUUUGUACAAAGCAGAAGGGCUAAAUCCAU [FMN B Excl V1]	154	151	160	105	167
UGUAAGCGCGUAGAUACCAGCAGACGAGUGAUGUUCGAGAGAUUAAGGAAAAGAAAGUGAUGCCCUUGGCAGCUAAUCAUAAGCG [whbob_Ex_Theo_B_sa95]	278	300	288	323	182
UGUCAUUGGUCGGCCGCCACUUCAUAAAGAGUGAUGUUCUAAAAGACGGAUCGAAAGAUCUGUCGAAGGACCGGGAUCGAUGACU [FiskerMod 11 - Jieux - Same State - Tryptophan B]	1200	559	998	569	275
GUUACGCAUGGAAGGAGCGCUCUCCGGUUGAUCGACACAGUGAUGUUGUGGUUCUACCGUAAGCAGGUAGGUCGCCAUGUGUAAC [Ex Arginine B K4 14]	730	449	936	966	828
UAUUCUGUUCGAAAGAACGGAAUUUCGGAAGGAGCGCGAGAAAUCGCAGGUAGGUCGCCGAAAUUAUUAGGUAGUGAUGUUACCU [Arginine A K4 6]	125	99.8	120	101	115
GACGGGCAGUGAUGUUGCCGGUCUCUUGGACGAGGACCGGUACGGCCGCCACUCGAUCUGAUGCAAGAAUCGCAUCUUUUAAUAA [Biququan]	151	103	166	312	273
AGACUUCACCGAAGGAGCGACGUAGCCUAGUGAUGUUAGGCGCGAGAGAAAUCUCGUAUACGUCAGGUAGGUCGCGGUGAAGUCA [Omei KL Arginine B SS C v4]	163	129	152	126	146
CCAUUCUUUUACGAUACCAGUUUAAUAUAUUUAAUCAAAACCCUCGCCGAGUGAUGUUCGGACCCUUGGCAGCGUUUGCGAGAGG [bjnbstkmullin]	455	291	582	533	397
AAAAGAAGAAGUGAUACCAGACAAGCAGUGAUGUUGCGCCAAAGUGAGUGAUGUUCACCAGUCCCUUGGCAGCACAUGCCAAAAG [Same State Theophylline B GF 5]	520	927	668	839	933
UGGACCUGACUCGAUAAGAGUCAAUGAGAUACCAGUGACGAAAGUCACCCUUGGCAGCUCAACUGCCAGUGAUGUUGGUGGUCCU [#SwitchBubble 2 #StaticStem]	605	389	769	703	528
UGGCAAGUGAUGUUUGCGUUUCCGCAGGAUACCAGUCUGUCUUGAGACCCUUGGCAGCCUGGGUACAGUCCAAGCGGUCACACGA [theeternabot_exclusion_KL_Theo_A_38]	371	297	405	375	285
AAAAUAAACCAGUGAUGUUGGUGUGUAGAUACCAGCGACGAAAGUCGCCCUUGGCAGCUGUGGACGUACAAAAUAAGUACGUCCU [MatMod 23 - Jieux - Same State - Theophylline A]	315	310	350	325	280
